Results taken from publication doi:10.1101/2021.12.20.473529 (bioRxiv, 2021).

B1: HNF-1A DD-DBD (HNF-1A 1-279), wild type (domain or fragment, human, UniProt P20823 1-279, looked up)
chain: MVSKLSQLQTELLAALLESGLSKEALIQALGEPGPYLLAGEGPLDKGESCGGGRGELAELPNGLGETRGSEDETDDDGEDFTPPILKELENLSPEEAAHQKAVVETLLQEDPWRVAKMVKSYLQQHNIPQREVVDTTGLNQSHLSQHLNKGTPMKTQKRAALYTWYVRKQREVAQQFTHAGQGGLIEEPTGDELPTKKGRRNRFKWGPASQQILFQAYERQKNPSKEERETLVEECNRAECIQRGVSPSQAQGLGSNLVTEVRVYNWFANRRKEEAFRH
B2: HNF-1A DD-DBD/N266S (domain or fragment, human, UniProt P20823 1-279, looked up)
chain: MVSKLSQLQTELLAALLESGLSKEALIQALGEPGPYLLAGEGPLDKGESCGGGRGELAELPNGLGETRGSEDETDDDGEDFTPPILKELENLSPEEAAHQKAVVETLLQEDPWRVAKMVKSYLQQHNIPQREVVDTTGLNQSHLSQHLNKGTPMKTQKRAALYTWYVRKQREVAQQFTHAGQGGLIEEPTGDELPTKKGRRNRFKWGPASQQILFQAYERQKNPSKEERETLVEECNRAECIQRGVSPSQAQGLGSNLVTEVRVYSWFANRRKEEAFRH
B3: HNF-1A DD-DBD/R263C (domain or fragment, human, UniProt P20823 1-279, looked up)
chain: MVSKLSQLQTELLAALLESGLSKEALIQALGEPGPYLLAGEGPLDKGESCGGGRGELAELPNGLGETRGSEDETDDDGEDFTPPILKELENLSPEEAAHQKAVVETLLQEDPWRVAKMVKSYLQQHNIPQREVVDTTGLNQSHLSQHLNKGTPMKTQKRAALYTWYVRKQREVAQQFTHAGQGGLIEEPTGDELPTKKGRRNRFKWGPASQQILFQAYERQKNPSKEERETLVEECNRAECIQRGVSPSQAQGLGSNLVTEVCVYNWFANRRKEEAFRH

Target: the molecule itself
Test: SEC-MALS

Row | Protein | stoichiometry N
1 | B1 | 2
2 | B2 | 2
3 | B3 | 2
